Among the data in article PMC10371073 are response (PLA foci/cell) values, retold here.

B1: Fused in Sarcoma (FUS), endogenous wild type [human (endogenous in HEK293 and human fibroblasts)] / DNA Ligase IIIα (Lig3), mitochondrial form mtLig3 [human (endogenous in HEK293 and human fibroblasts)] (parent)
chain 1: MASNDYTQQATQSYGAYPTQPGQGYSQQSSQPYGQQSYSGYSQSTDTSGYGQSSYSSYGQSQNTGYGTQSTPQGYGSTGGYGSSQSSQSSYGQQSSYPGYGQQPAPSSTSGSYGSSSQSSSYGQPQSGSYSQQPSYGGQQQSYGQQQSYNPPQGYGQQNQYNSSSGGGGGGGGGGNYGQDQSSMSSGGGSGGGYGNQDQSGGGGSGGYGQQDRGGRGRGGSGGGGGGGGGGYNRSSGGYEPRGRGGGRGGRGGMGGSDRGGFNKFGGPRDQGSRHDSEQDNSDNNTIFVQGLGENVTIESVADYFKQIGIIKTNKKTGQPMINLYTDRETGKLKGEATVSFDDPPSAKAAIDWFDGKEFSGNPIKVSFATRRADFNRGGGNGRGGRGRGGPMGRGGYGGGGSGGGGRGGFPSGGGGGGGQQRAGDWKCPNPTCENMNFSWRNECNQCKAPKPDGPGGGPGGSHMGGNYGDDRRGGRGGYDRGGYRGRGGDRGGFRGGRGGGDRGGFGPGKMDSRGEHRQDRRERPY
chain 2: LLHGHPLFLRRKPVLSFQGSHLRSRATYLVFLPGLHVGLCSGPCEMAEQRFCVDYAKRGTAGCKKCKEKIVKGVCRIGKVVPNPFSESGGDMKEWYHIKCMFEKLERARATTKKIEDLTELEGWEELEDNEKEQITQHIADLSSKAAGTPKKKAVVQAKLTTTGQVTSPVKGASFVTSTNPRKFSGFSAKPNNSGEAPSSPTPKRSLSSSKCDPRHKDCLLREFRKLCAMVADNPSYNTKTQIIQDFLRKGSAGDGFHGDVYLTVKLLLPGVIKTVYNLNDKQIVKLFSRIFNCNPDDMARDLEQGDVSETIRVFFEQSKSFPPAAKSLLTIQEVDEFLLRLSKLTKEDEQQQALQDIASRCTANDLKCIIRLIKHDLKMNSGAKHVLDALDPNAYEAFKASRNLQDVVERVLHNAQEVEKEPGQRRALSVQASLMTPVQPMLAEACKSVEYAMKKCPNGMFSEIKYDGERVQVHKNGDHFSYFSRSLKPVLPHKVAHFKDYIPQAFPGGHSMILDSEVLLIDNKTGKPLPFGTLGVHKKAAFQDANVCLFVFDCIYFNDVSLMDRPLCERRKFLHDNMVEIPNRIMFSEMKRVTKALDLADMITRVIQEGLEGLVLKDVKGTYEPGKRHWLKVKKDYLNEGAMADTADLVVLGAFYGQGSKGGMMSIFLMGCYDPGSQKWCTVTKCAGGHDDATLARLQNELDMVKISKDPSKIPSWLKVNKIYYPDFIVPDPKKAAVWEITGAEFSKSEAHTADGISIRFPRCTRIRDDKDWKSATNLPQLKELYQLSKEKADFTVVAGDEGSSTTGGSSEENKGPSGSAVSRKAPSKPSASTKKAEGKLSNSNSKDGNMQTAKPSAMKVGEKLATKSSPVKVGEKRKAADETLCQTKVLLDIFTGVRLYLPPSTPDFSRLRRYFVAFDGDLVQEFDMTSATHVLGSRDKNPAAQQVSPEWIWACIRKRRLVAPC

In the experiment the parent is B1. The experiment can be described thus: proximity ligation assay (PLA) in control and patient derived fibroblasts. The following applies: with DNA Ligase IIIα (Lig3), GO treatment (100ng/ml for 1 hr) per legend, the box plot does not say whether control or GO-treated cells were counted, parent: 64, read off a plot.
For chain 1 MASNDYTQQATQSYGAYPTQPGQGYSQQSSQPYGQQSYSGYSQSTDTSGYGQSSYSSYGQSQNTGYGTQSTPQGYGSTGGYGSSQSSQSSYGQQSSYPGYGQQPAPSSTSGSYGSSSQSSSYGQPQSGSYSQQPSYGGQQQSYGQQQSYNPPQGYGQQNQYNSSSGGGGGGGGGGNYGQDQSSMSSGGGSGGGYGNQDQSGGGGSGGYGQQDRGGRGRGGSGGGGGGGGGGYNRSSGGYEPRGRGGGRGGRGGMGGSDRGGFNKFGGPRDQGSRHDSEQDNSDNNTIFVQGLGENVTIESVADYFKQIGIIKTNKKTGQPMINLYTDRETGKLKGEATVSFDDPPSAKAAIDWFDGKEFSGNPIKVSFATRRADFNRGGGNGRGGRGRGGPMGRGGYGGGGSGGGGRGGFPSGGGGGGGQQRAGDWKCPNPTCENMNFSWRNECNQCKAPKPDGPGGGPGGSHMGGNYGDDRRGGRGGYDRGGYRGRGGDRGGFRGGRGGGDRGGFGPGKMDSRGEHRQDRRERLY [chain 1 P525L], the response (PLA foci/cell) came to 20. As to chain 1 MASNDYTQQATQSYGAYPTQPGQGYSQQSSQPYGQQSYSGYSQSTDTSGYGQSSYSSYGQSQNTGYGTQSTPQGYGSTGGYGSSQSSQSSYGQQSSYPGYGQQPAPSSTSGSYGSSSQSSSYGQPQSGSYSQQPSYGGQQQSYGQQQSYNPPQGYGQQNQYNSSSGGGGGGGGGGNYGQDQSSMSSGGGSGGGYGNQDQSGGGGSGGYGQQDRGGRGRGGSGGGGGGGGGGYNRSSGGYEPRGRGGGRGGRGGMGGSDRGGFNKFGGPRDQGSRHDSEQDNSDNNTIFVQGLGENVTIESVADYFKQIGIIKTNKKTGQPMINLYTDRETGKLKGEATVSFDDPPSAKAAIDWFDGKEFSGNPIKVSFATRRADFNRGGGNGRGGRGRGGPMGRGGYGGGGSGGGGRGGFPSGGGGGGGQQRAGDWKCPNPTCENMNFSWRNECNQCKAPKPDGPGGGPGGSHMGGNYGDDRRGGRGGYDRGGYRGRGGDRGGFRGGRGGGDRGGFGPGKMDSRGEHRQDHRERPY [chain 1 R521H], the response (PLA foci/cell) stood at 19.
